T1: CEA (Homo sapiens, UniProt P06731)
T1 sequence (P06731 35-676): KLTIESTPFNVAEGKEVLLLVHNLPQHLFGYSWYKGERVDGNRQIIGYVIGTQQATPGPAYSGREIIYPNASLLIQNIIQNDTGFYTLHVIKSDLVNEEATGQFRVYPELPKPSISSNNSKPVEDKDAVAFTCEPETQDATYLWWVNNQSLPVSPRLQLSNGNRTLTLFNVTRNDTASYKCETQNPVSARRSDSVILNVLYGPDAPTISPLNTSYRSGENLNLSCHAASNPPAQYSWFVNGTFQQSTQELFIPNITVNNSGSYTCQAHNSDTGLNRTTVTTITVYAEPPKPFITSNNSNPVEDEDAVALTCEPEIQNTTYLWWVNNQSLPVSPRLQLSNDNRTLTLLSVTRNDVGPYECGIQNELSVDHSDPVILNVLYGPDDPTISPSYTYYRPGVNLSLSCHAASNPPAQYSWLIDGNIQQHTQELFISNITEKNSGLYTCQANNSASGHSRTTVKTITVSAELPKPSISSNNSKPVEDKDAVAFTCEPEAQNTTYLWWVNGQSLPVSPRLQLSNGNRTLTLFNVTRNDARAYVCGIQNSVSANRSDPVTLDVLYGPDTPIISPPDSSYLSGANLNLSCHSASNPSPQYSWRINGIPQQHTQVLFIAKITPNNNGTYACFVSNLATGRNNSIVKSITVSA

B1: 806.077 antibody: novel murine anti-CEA monoclonal antibody from hybridoma 806.077, ECACC deposit no. 96022936 (antibody, V domains shown)
VH: EVQLQQSGAELVRSGASVKLSCTASGFNIKDNYMHWVKQRPEQGLEWIAWIDPENGDTEYAPKFRGKATLTADSSSNTAYLHLSSLTSEDTAVYYCHVLIYAGYLAMDYWGQGTSVAVSS
VL: DIELTQSPAIMSASPGEKVTITCSASSSVTYMHWFQQKPGTSPKLWIYSTSNLASGVPARFSGSGSGTSYSLTISRMEAEDAATYYCQQRSTYPLTFGAGTKLELKRA
B2: Example 75: [A248S,G251T,D253K]HCPB fused via (GGGS)3 linker to N-terminus of humanised 806.077 Fd (HuVH1-HuIgG3), with HuVK4-HuCK light chain (antibody)
heavy: HHGGEHFEGEKVFRVNVEDENHINIIRELASTTQIDFWKPDSVTQIKPHSTVDFRVKAEDTVTVENVLKQNELQYKVLISNLRNVVEAQFDSRVRATGHSYEKYNKWETIEAWTQQVATENPALISRSVIGTTFEGRAIYLLKVGKAGQNKPAIFMDCGFHAREWISPAFCQWFVREAVRTYGREIQVTELLDKLDFYVLPVLNIDGYIYTWTKSRFWRKTRSTHTGSSCIGTDPNRNFDAGWCEIGASRNPCDETYCGPAAESEKETKALADFIRNKLSSIKAYLTIHSYSQMMIYPYSYAYKLGENNAELNALAKATVKELASLHGTKYTYGPGATTIYPSAGTSKDWAYDQGIRYSFTFELRDTGRYGFLLPESQIRATCEETFLAIKYVASYVLEHLYGGGSGGGSGGGSEVQLQQSGPGLVRPSQTLSLTCTASGFNIKDNYMHWVRQPPGRGLEWIGWIDPENGDTEYAPKFRGRVTMLADTSKNQFSLRLSSVTAADTAVYYCHVLIYAGYLAMDYWGQGTLVTVSSASTKGPSVFPLAPCSRSTSGGTAALGCLVKDYFPEPVTVSWNSGALTSGVHTFPAVLQSSGLYSLSSVVTVPSSSLGTQTYTCNVNHKPSNTKVDKRVELKTPLGDTTHTCPRCPEPKSCDTPPPCPRCPEPKSCDTPPPCPRCPEPKSCDTPPPCPRCPAPELLGG
light: DIQMTQSPSSLSASVGDRVTITCSASSSVTYMHWYQQKPGKAPKLWIYSTSNLASGVPSRFSGSGSGTDYTFTISSLQPEDIATYYCQQRSTYPLTFGQGTKLEIKRTVAAPSVFIFPPSDEQLKSGTASVVCLLNNFYPREAKVQWKVDNALQSGNSQESVTEQDSKDSTYSLSSTLTLSKADYEKHKVYACEVTHQGLSSPVTKSFNRGEC

Columns and labels:
Breast tumours = assay: Three-stage indirect immunohistology on frozen sections, breast tumours; assay type: binding, human; design: key: +++ (strong)=antibody binding to >75% tumour cells; ++ (moderate)=antibody binding to 50%-75% tumour cells; + (weak)=antibody binding to 25%-50% tumour cells; +/− (minimal)=non-focal antibody binding to a small area of tumour cells; −=no staining; details: Breast tumours (n=6), score seen in 2/6 tumours; 2 μg/ml
Procedure: (§1) To assess selectivity, many human normal and tumour tissues have been screened for reactivity with the antibody 806.077, using sensitive three-stage indirect immunohistology on acetone-fixed, frozen cryostat sections.
(§2) Immunohistology was carried out on sections of human tissue obtained either at resection surgery or at post mortem. To preserve optimal morphology and antigenicity, tissues were obtained as fresh as possible, cut into small pieces (about 0.5 cm^3) and flash frozen in liquid nitrogen prior to storage at −80° C. Sections of tissue (6μ) were cut on a cryostat, mounted on polylysine coated slides (e.g. blue TECHMATE™ slides, Dako) and fixed in ice-cold acetone for 2 minutes before being wrapped in foil and stored at −80° C.
(§3) Slides were allowed to defrost at room temperature before being unwrapped from the foil immediately prior to use. Each section was outlined with a diamond marker, and to each section was added either 100 μl 806.077 antibody diluted to 2 μg/ml in Tris-buffered Saline (TBS), or 100 μl CEA/NCA reactive control (A5B7 antibody) at 2 μg/ml in TBS, or 100 μl MOPC isotype control (Sigma Chemical Company, St. Louis, U.S.A., Cat. No. M 9269) at 2 μg/ml in TBS, or relevant positive control such as LP34 (Dako). All subsequent incubations were carried out at room temperature for 30 minutes in a humidified chamber: all wash steps were in TBS with 2 changes. […]

Lung (NCA reactivity) = assay: Three-stage indirect immunohistology on frozen sections, normal lung; assay type: binding, human; design: key to degree of binding (staining score): +++ (strong)=antibody binding to >75% tumour cells; ++ (moderate)=antibody binding to 50%-75% tumour cells; + (weak)=antibody binding to 25%-50% tumour cells; +/− (minimal)=non-focal antibody binding to a small area of tumour cells; −=no staining
Procedure: as §1, §2
(§4) Slides were allowed to defrost at room temperature before being unwrapped from the foil immediately prior to use. […] Louis, U.S.A., Cat. No. M 9269) at 2 μg/ml in TBS, or relevant positive control such as LP34 (Dako). All subsequent incubations were carried out at room temperature for 30 minutes in a humidified chamber: all wash steps were in TBS with 2 changes. After incubation, the slides were washed and 100 μl of second antibody reagent, comprising 1/50 rabbit anti-mouse immunoglobulins conjugated to horse radish peroxidase (Dako Patts) and ⅕ normal human serum (Sigma) in TBS was added to each section.
The slides were again incubated and washed in TBS. A final detecting antibody, 100 μl swine anti-rabbit immunoglobulin conjugated to horse radish peroxidase ( 1/50 dilution with ⅕ normal human serum in TBS), was added to each section, incubated and washed thoroughly. DAB substrate (3,3′-diaminobenzidine tetrahydrochloride) was prepared using 1 DAB tablet (Sigma) with hydrogen peroxide (17 μl) in TBS (17 ml), and added dropwise through a fast filter paper (e.g. Whatman Number 4). After 3 minutes incubation the excess DAB was tapped off the slides and the slides were washed in TBS. […]

Colon tumours = assay: Three-stage indirect immunohistology on frozen sections, colon tumours; assay type: binding, human; details: tissue culture supernatant neat and diluted 1:10
Procedure: as §1, §2, §4
The slides were again incubated and washed in TBS. […]

[1] = system: Post mortem normal tissues; assay: Three-stage indirect immunohistology on frozen sections, post mortem normal tissues; assay type: binding, human; details: cerebellum, mid-brain, cerebrum, smooth muscle, liver, kidney, aorta, stomach, heart; 2 μg/ml
Procedure: as §1, §2, §3

prostate tumours = assay: Three-stage indirect immunohistology on frozen sections, prostate tumours; assay type: binding, human; details: prostate tumours (n=3), any tumour; 2 μg/ml
Procedure: as §1, §2, §3

[2] = system: Spleen (granulocyte/NCA reactivity); assay: Three-stage indirect immunohistology on frozen sections, normal spleen; assay type: binding, human
Procedure: as §1, §2, §3

NSCLC tumours = assay: Three-stage indirect immunohistology on frozen sections, NSCLC tumours; assay type: binding, human; details: NSCLC tumours (n=6), score seen in 1/6 tumours; 2 μg/ml
Procedure: as §1, §2, §3

Ovary tumours = assay: Three-stage indirect immunohistology on frozen sections, ovary tumours; assay type: binding, human; details: Ovary tumours (n=3), any tumour; 2 μg/ml
Procedure: as §1, §2, §3

CEA = biological target: T1, CEA; assay: CEA binding ELISA; details: media of NS0 clones
Procedure: For the CEA ELISA each well of a 96 well immunoplate (NUNC MAXISORB™) was coated with 50 ng CEA in 50 mM carbonate/bicarbonate coating buffer pH9.6 (buffer capsules—Sigma C3041) and incubated at 4° C. overnight. The plate was washed three times with PBS+0.05% Tween 20 and then blocked 150 μl per well of 1% BSA in PBS +0.05% Tween 20 for 1 hour at room temperature. The plate was washed as previously described, 100 μl of test sample added per well and incubated at room temperature for 2 hours. Again the plate was washed three times with PBS+0.05% Tween 20, 100 μl per well of a 1/500 dilution of HRPO-labelled goat anti-human kappa antibody (Sigma A 7164) was added, in 1% BSA in PBS-Tween 20 and incubated at room temperature on a rocking platform for at least 1 hour. The plate was washed as before and then once more with PBS. To detect binding add 100 μl per well developing solution (one capsule of phosphate-citrate buffer—Sigma P4922—dissolved in 100 mls H2O to which is added one 30 mg tablet o-phenylenediamine dihydrochloride—Sigma P8412) and incubated for up to 15 minutes. The reaction was stopped by adding 75 μl 2M H2SO4, and absorbance read at 490 nm.
Media from wells containing single viable clones was taken for testing and replaced with fresh media (containing G418). […]

| Molecule | degree of binding (staining score) (Breast tumours) | staining of normal lung tissues (summary statement) (Lung (NCA reactivity); 4/14 normal lung tissues tested) | degree of binding (staining score) (Lung (NCA reactivity); normal lung (n=14), score seen in 10/14 tissues, 2 μg/ml) | binding compared to A5B7 (Lung (NCA reactivity); normal lung, tissue culture supernatant neat and diluted 1:10) | binding compared to A5B7 (Colon tumours) | reactivity [1] | staining (prostate tumours) | binding compared to A5B7 ([2]; normal spleen, tissue culture supernatant neat and diluted 1:10) | staining ([2]; spleen (n=6), any of the tissues tested, 2 μg/ml) | degree of binding (staining score) (NSCLC tumours) | staining (Ovary tumours) | antibody binding to CEA in an ELISA (CEA) |
| --- | --- | --- | --- | --- | --- | --- | --- | --- | --- | --- | --- | --- |
| B1 | +/− | minimal staining | − | much reduced binding | equivalent binding | negative | No staining | much reduced binding | No staining | ++ (++ (moderate)=antibody binding to 50%-75% tumour cells) | No staining |  |
| B2 |  |  |  |  |  |  |  |  |  |  |  | positive |
